Assay results from paper PMC10891134, “Bacteria employ lysine acetylation of transcriptional regulators to adapt gene expression to cellular metabolism” (Nature Communications, 2024).
Positions count from the first letter of the chain named.

Legend:
[1] = molecular target: RutR AcK11 K11AcK (Escherichia coli K12?) (UniProt P0ACU2); assay: ITC; conditions: ITC: 100 mM potassium phosphate pH 6.4, 150 mM NaCl, 5 mM MgCl2, 2 mM b-ME, 20 or 25 C; SPR: 100 mM potassium phosphate pH 6.4, 300 mM NaCl, 0.05% Tween20 …
Chain of RutR AcK11 K11AcK (Escherichia coli K12?) (P0ACU2 whole entry): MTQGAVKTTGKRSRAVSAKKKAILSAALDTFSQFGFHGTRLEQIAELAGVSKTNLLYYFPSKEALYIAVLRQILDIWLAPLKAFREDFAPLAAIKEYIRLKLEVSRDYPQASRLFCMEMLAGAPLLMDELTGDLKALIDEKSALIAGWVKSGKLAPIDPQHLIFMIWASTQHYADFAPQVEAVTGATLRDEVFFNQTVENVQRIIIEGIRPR

[2] = molecular target: RutR AcK150 K150AcK (Escherichia coli K12?) (UniProt P0ACU2); assay: ITC; conditions: ITC: 100 mM potassium phosphate pH 6.4, 150 mM NaCl, 5 mM MgCl2, 2 mM b-ME, 20 or 25 C; SPR: 100 mM potassium phosphate pH 6.4, 300 mM NaCl, 0.05% Tween20 …
[3] = molecular target: RutR AcK21 K21AcK (Escherichia coli K12?) (UniProt P0ACU2); assay: ITC; conditions: ITC: 100 mM potassium phosphate pH 6.4, 150 mM NaCl, 5 mM MgCl2, 2 mM b-ME, 20 or 25 C; SPR: 100 mM potassium phosphate pH 6.4, 300 mM NaCl, 0.05% Tween20 …
[4] = molecular target: RutR AcK7 K7AcK (Escherichia coli K12?) (UniProt P0ACU2); assay: ITC; conditions: ITC: 100 mM potassium phosphate pH 6.4, 150 mM NaCl, 5 mM MgCl2, 2 mM b-ME, 20 or 25 C; SPR: 100 mM potassium phosphate pH 6.4, 300 mM NaCl, 0.05% Tween20 …
Chain of RutR AcK7 K7AcK (Escherichia coli K12?) (P0ACU2 whole entry): as above

[5] = molecular target: RutR AcK7/11 K7AcK;K11AcK (Escherichia coli K12?) (UniProt P0ACU2); assay: ITC; conditions: ITC: 100 mM potassium phosphate pH 6.4, 150 mM NaCl, 5 mM MgCl2, 2 mM b-ME, 20 or 25 C; SPR: 100 mM potassium phosphate pH 6.4, 300 mM NaCl, 0.05% Tween20 …
Chain of RutR AcK7/11 K7AcK;K11AcK (Escherichia coli K12?) (P0ACU2 whole entry): as above

[6] = molecular target: RutR AcK95 K95AcK (Escherichia coli K12?) (UniProt P0ACU2); assay: ITC; conditions: ITC: 100 mM potassium phosphate pH 6.4, 150 mM NaCl, 5 mM MgCl2, 2 mM b-ME, 20 or 25 C; SPR: 100 mM potassium phosphate pH 6.4, 300 mM NaCl, 0.05% Tween20 …
[7] = molecular target: RutR AcK7/11 K7AcK;K11AcK (Escherichia coli K12?) (UniProt P0ACU2); assay: SPR; conditions: ITC: 100 mM potassium phosphate pH 6.4, 150 mM NaCl, 5 mM MgCl2, 2 mM b-ME, 20 or 25 C; SPR: 100 mM potassium phosphate pH 6.4, 300 mM NaCl, 0.05% Tween20 …
[8] = molecular target: RutR AcK7 K7AcK (Escherichia coli K12?) (UniProt P0ACU2); assay: SPR; conditions: ITC: 100 mM potassium phosphate pH 6.4, 150 mM NaCl, 5 mM MgCl2, 2 mM b-ME, 20 or 25 C; SPR: 100 mM potassium phosphate pH 6.4, 300 mM NaCl, 0.05% Tween20 …
[9] = molecular target: RutR AcK62 K62AcK (Escherichia coli K12?) (UniProt P0ACU2); assay: ITC; conditions: ITC: 100 mM potassium phosphate pH 6.4, 150 mM NaCl, 5 mM MgCl2, 2 mM b-ME, 20 or 25 C; SPR: 100 mM potassium phosphate pH 6.4, 300 mM NaCl, 0.05% Tween20 …
Chain of RutR AcK62 K62AcK (Escherichia coli K12?) (P0ACU2 whole entry): as above

[10] = molecular target: the molecule itself; assay: SEC; analytical size-exclusion chromatography of the purified RutR proteins; elution as dimer; column and buffer not given
RutR K7R/K11R = molecular target: T1, RutR K7R/K11R (UniProt P0ACU2 1-212, K7R;K11R); assay: ITC; ITC: 100 mM potassium phosphate pH 6.4, 150 mM NaCl, 5 mM MgCl2, 2 mM b-ME, 20 or 25 C; SPR: 100 mM potassium phosphate pH 6.4, 300 mM NaCl, 0.05% Tween20, 25 C; EMSA: 20 mM Tris-HCl pH 7.5, 100 mM KCl, 2 mM DTT, 10% glycerol, 25 nM DNA, 30 C; conditions: protein: recombinant; tags: His6; chain copies: 2; blunt
T1 sequence: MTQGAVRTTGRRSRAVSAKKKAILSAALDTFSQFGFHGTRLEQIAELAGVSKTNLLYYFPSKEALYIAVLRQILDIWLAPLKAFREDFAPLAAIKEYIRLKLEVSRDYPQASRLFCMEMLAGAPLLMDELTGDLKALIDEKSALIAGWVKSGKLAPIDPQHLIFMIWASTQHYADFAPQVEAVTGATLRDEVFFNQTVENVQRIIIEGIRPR

RutR WT = molecular target: T2, RutR WT (UniProt P0ACU2 1-212); assay: as above; conditions: protein: recombinant; tags: His6; chain copies: 2; blunt
T2 sequence: T1 sequence with R7K, R11K

RutR K52R = molecular target: T3, RutR K52R (UniProt P0ACU2 1-212, K52R); assay: as above; conditions: protein: recombinant; tags: His6; chain copies: 2; blunt
T3 sequence: T1 sequence with R7K, R11K, K52R

RutR K52Q = molecular target: T4, RutR K52Q (UniProt P0ACU2 1-212, K52Q); assay: as above; conditions: protein: recombinant; tags: His6; chain copies: 2; blunt
T4 sequence: T1 sequence with R7K, R11K, K52Q

RutR K11Q = molecular target: T5, RutR K11Q (UniProt P0ACU2 1-212, K11Q); assay: as above; conditions: protein: recombinant; tags: His6; chain copies: 2; blunt
T5 sequence: T1 sequence with R7K, R11Q

RutR K7Q = molecular target: T6, RutR K7Q (UniProt P0ACU2 1-212, K7Q); assay: as above; conditions: protein: recombinant; tags: His6; chain copies: 2; blunt
T6 sequence: T1 sequence with R7Q, R11K

RutR K7Q/K11Q = molecular target: T7, RutR K7Q/K11Q (UniProt P0ACU2 1-212, K7Q;K11Q); assay: as above; conditions: protein: recombinant; tags: His6; chain copies: 2; blunt
T7 sequence: T1 sequence with R7Q, R11Q

RutR Δ1-12 = molecular target: T8, RutR Δ1-12 (UniProt P0ACU2 13-212, del1-12); assay: EMSA; ITC: 100 mM potassium phosphate pH 6.4, 150 mM NaCl, 5 mM MgCl2, 2 mM b-ME, 20 or 25 C; SPR: 100 mM potassium phosphate pH 6.4, 300 mM NaCl, 0.05% Tween20, 25 C; EMSA: 20 mM Tris-HCl pH 7.5, 100 mM KCl, 2 mM DTT, 10% glycerol, 25 nM DNA, 30 C; conditions: protein: recombinant; tags: His6; chain copies: 2; blunt
T8 sequence: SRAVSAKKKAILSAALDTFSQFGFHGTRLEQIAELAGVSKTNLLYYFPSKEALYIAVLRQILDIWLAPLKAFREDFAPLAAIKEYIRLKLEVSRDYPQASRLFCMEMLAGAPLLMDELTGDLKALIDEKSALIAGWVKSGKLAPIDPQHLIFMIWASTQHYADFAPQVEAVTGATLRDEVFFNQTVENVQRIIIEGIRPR

For “GTTTTATGTGCAACTGTTTTGACCGTTTAGTCCACTTTTTACCAGATATTTTAG (double strand) [boxrutA]”, the Kd [1] was 95 nM, the Kd [2] was 72 nM and the Kd [3] was 58 nM. The Kd [4] was 94 nM, the Kd [5] was 251 nM and the Kd [6] was 32 nM.

“GTTTTAATGTAAATTTTGACCATTTGGTCCACTTTTTTCTGCTCGT (double strand) [biotin-boxcarA]” was tested, and the binding signal (fold reduced affinity vs WT) [7] was 8.

Work on “GTTTTATGTGCAACTGTTTTGACCGTTTAGTCCACTTTTTACCAGATATTTTAG (double strand) [biotin-boxrutA]” yielded a Kd [8] of 9.06 nM and a Kd [7] of 76.2 nM.

For “GTTTTAATGTAAATTTTGACCATTTGGTCCACTTTTTTCTGCTCGT (double strand) [boxcarA]”, the Kd [1] was 82 nM, the Kd [2] was 40 nM and the Kd [3] was 12 nM. For the same molecule, the Kd [9] was 1120 nM, the Kd [4] was 73 nM and the Kd [5] was 300 nM. For the same molecule, the Kd [6] was 19 nM.

B1: non-acetylated RutR (pyrimidine utilization repressor) wild type (natural protein, E. coli, UniProt P0ACU2 1-212, looked up)
chain: T1 sequence with R7K, R11K
notes: RutR, TetR-family transcriptional regulator of Escherichia coli; called full-length RutR WT; Expressed from a modified pRSFDuet-1 that carries a G to P mutation after the start Met of the tag region; No tag cleavage is described; also called RutR WT; source: E. coli BL21 (DE3), purified (Ni-NTA, SEC)
In the case of B1, the “stoichiometry N” value [10] is reported as 2.

B2: RutR AcK95 (site-specifically K95-acetylated RutR) (natural protein, E. coli)
chain: T1 sequence with R7K, R11K
modifications: acetyl-lysine at 95
notes: RutR of Escherichia coli; rutR gene as in m1 with an amber stop codon at K95 for acetyl-L-lysine; Same rutR construct as m1 apart from the amber codon; constructs are in Supplementary Data 4; source: E. coli BL21 (DE3), genetic code expansion (acetyl-L-lysine at an amber codon), purified
For B2, the “stoichiometry N” value [10] was 2.

B3: RutR AcK11 (site-specifically K11-acetylated RutR) (natural protein, E. coli)
chain: T1 sequence with R7K, R11K
modifications: acetyl-lysine at 11
notes: RutR of Escherichia coli; rutR gene as in m1 with an amber stop codon at K11 for acetyl-L-lysine; Same rutR construct as m1 apart from the amber codon; constructs are in Supplementary Data 4; source: E. coli BL21 (DE3), genetic code expansion (acetyl-L-lysine at an amber codon), purified
With B3 the “stoichiometry N” value [10] was 2.

B4: double-acetylated RutR AcK7/11 (natural protein, E. coli)
chain: T1 sequence with R7K, R11K
modifications: acetyl-lysine at 7 and at 11
notes: RutR of Escherichia coli; rutR gene as in m1 with amber stop codons at K7 and K11 for acetyl-L-lysine; Same rutR construct as m1 apart from the amber codons; constructs are in Supplementary Data 4; also called K7- and K11-double-acetylated RutR; source: E. coli BL21 (DE3), genetic code expansion with an additional plasmid for the optimized MbtRNAopt, purified
With B4 the “stoichiometry N” value [10] was 2.

B5: RutR AcK62 (site-specifically K62-acetylated RutR) (natural protein, E. coli)
chain: T1 sequence with R7K, R11K
modifications: acetyl-lysine at 62
notes: RutR of Escherichia coli; rutR gene as in m1 with an amber stop codon at K62 for acetyl-L-lysine; Same rutR construct as m1 apart from the amber codon; constructs are in Supplementary Data 4; source: E. coli BL21 (DE3), genetic code expansion (acetyl-L-lysine at an amber codon), purified
For B5, the “stoichiometry N” value [10] was 2.

B6: RutR AcK21 (site-specifically K21-acetylated RutR) (natural protein, E. coli)
chain: T1 sequence with R7K, R11K
modifications: acetyl-lysine at 21
notes: RutR of Escherichia coli; rutR gene as in m1 with an amber stop codon at K21 for acetyl-L-lysine; Same rutR construct as m1 apart from the amber codon; constructs are in Supplementary Data 4; source: E. coli BL21 (DE3), genetic code expansion (acetyl-L-lysine at an amber codon), purified
For B6, the “stoichiometry N” value [10] was 2.

B7: RutR AcK150 (site-specifically K150-acetylated RutR) (natural protein, E. coli)
chain: T1 sequence with R7K, R11K
modifications: acetyl-lysine at 150
notes: RutR of Escherichia coli; rutR gene as in m1 with an amber stop codon at K150 for acetyl-L-lysine; Same rutR construct as m1 apart from the amber codon; constructs are in Supplementary Data 4; source: E. coli BL21 (DE3), genetic code expansion (acetyl-L-lysine at an amber codon), purified
B7 was tested, and the “stoichiometry N” value [10] was 2.

B8: RutR AcK52 (site-specifically K52-acetylated RutR) (natural protein, E. coli)
chain: T1 sequence with R7K, R11K
modifications: acetyl-lysine at 52
notes: RutR of Escherichia coli; rutR gene as in m1 with an amber stop codon at K52 for acetyl-L-lysine; no electron density for the N-terminal 12 (chain A) or 11 (chain B) residues in the structure; Same rutR construct as m1 apart from the amber codon; constructs are in Supplementary Data 4; also called RutR AcK52•uracil; source: E. coli BL21 (DE3), genetic code expansion (acetyl-L-lysine at an amber …)
For B8, the “stoichiometry N” value [10] was 2.

B9: RutR AcK7 (site-specifically K7-acetylated RutR) (natural protein, E. coli)
chain: T1 sequence with R7K, R11K
modifications: acetyl-lysine at 7
notes: RutR of Escherichia coli; rutR gene as in m1 with an amber stop codon at K7 for acetyl-L-lysine; Same rutR construct as m1 apart from the amber codon; constructs are in Supplementary Data 4; source: E. coli BL21 (DE3), genetic code expansion (acetyl-L-lysine at an amber codon), purified
For B9, the “stoichiometry N” value [10] was 2.

B10: boxrutA (dsDNA)
DNA 1: GTTTTATGTGCAACTGTTTTGACCGTTTAGTCCACTTTTTACCAGATATTTTAG
DNA 2: CTAAAATATCTGGTAAAAAGTGGACTAAACGGTCAAAACAGTTGCACATAAAAC
For B10, the Kd (RutR K7R/K11R) was 47 ± 20 nM, the Kd (RutR WT) was 44 ± 21 nM and the Kd (RutR K52R) was 42 ± 30 nM. For the same molecule, the Kd (RutR K52Q) was 2420 ± 961 nM, the Kd (RutR K11Q) was 332 ± 179 nM and the Kd (RutR K7Q) was 57 ± 20 nM. For the same molecule, the Kd (RutR K7Q/K11Q) was 540 ± 158 nM and the binding result (RutR Δ1-12) was “binds”.

B11: boxcarA (dsDNA)
DNA 1: GTTTTAATGTAAATTTTGACCATTTGGTCCACTTTTTTCTGCTCGT
DNA 2: ACGAGCAGAAAAAAGTGGACCAAATGGTCAAAATTTACATTAAAAC
Work on B11 yielded a Kd (RutR K7R/K11R) of 17 ± 1 nM, a Kd (RutR WT) of 28 ± 1 nM and a Kd (RutR K52R) of 61 ± 36 nM. For the same molecule, the Kd (RutR K52Q) was 1220 ± 1130 nM, the Kd (RutR K11Q) was 42 ± 16 nM and the Kd (RutR K7Q) was 26 ± 12 nM. The Kd (RutR K7Q/K11Q) was 153 ± 43 nM and the binding result (RutR Δ1-12) was “binds”.
